Results: the RNAGym collection of RNA variant scans (doi:10.7554/elife.80360)

B1: CPEB3 Ribozyme (parent)
chain: GGGGGCCACAGCAGAAGCGUUCACGUCGCGGCCCCUGUCAGAUUCUGGUGAAUCUGCGAAUUCUGCUGU

Variants of: B1
Assay: self-cleavage, relative activity (ratio to wild type); higher = more cleavage; co-transcriptional

Compared with GGGGGCCACAGCAGUAGCGUUCACGUCGCGGCCCCUGUCAGAUUCUGGUGAAUCUGCGAAUUCUGUUGU [A15U C66U], GGGGGCCACAGCAGUAGCGUUCACGUCGCGGCCCCUGUCAGAUUCUGGUGAAUCUGCGAAUUCUGGUGU [A15U C66G] is lower in self-cleavage: 0.643 for the first, 0.516 for the second.

Going from GGGGGCCACAGCAGUAGCGUUCACGUCGCGGCCCCUGUCAGAUUCUGGUGAAUCUGCGAAUUCUGAUGU [A15U C66A] to GGGGGCCACAGCAGUAGCGUUUACGUCGCGGCCCCUGUCAGAUUCUGGUGAAUCUGCGAAUUCUGCUGU [A15U C22U], the self-cleavage falls from 0.324 to 0.107.

First: GGGGGCCACAGCAGUAGCGUUGACGUCGCGGCCCCUGUCAGAUUCUGGUGAAUCUGCGAAUUCUGCUGU [A15U C22G]
Second: GGGGGCCACAGCAGUAGCGUUAACGUCGCGGCCCCUGUCAGAUUCUGGUGAAUCUGCGAAUUCUGCUGU [A15U C22A]
The self-cleavage of the first is lower: 0.126 for the first, 0.225 for the second.

First: GGGGGCCACAGCAGUAGCGUUCACGUCGCGGCCCUUGUCAGAUUCUGGUGAAUCUGCGAAUUCUGCUGU [A15U C35U]
Second: GGGGGCCACAGCAGUAGCGUUCACGUCGGGGCCCCUGUCAGAUUCUGGUGAAUCUGCGAAUUCUGCUGU [A15U C29G]
The self-cleavage of the first is higher: 0.776 for the first, 0.169 for the second.

First: GGGGGCCACAGCAGUAGCGUUCACGUCGAGGCCCCUGUCAGAUUCUGGUGAAUCUGCGAAUUCUGCUGU [A15U C29A]
Second: GGGGGCCACAGCAGGAGCGUUCACGUCGCGGCCCCUGUCAGAUUCUGGUGAACCUGCGAAUUCUGCUGU [A15G U53C]
The self-cleavage of the first is lower: 0.245 for the first, 0.859 for the second.

Going from GGGGGCCACAGCAGGAGCGUUCACGUCGCGGCCCCUGUCAGAUUCUGGUGAAGCUGCGAAUUCUGCUGU [A15G U53G] to GGGGGCCACAGCAGGAGCGUUCACGUCGCGGCCCCUGUCAGAUUCUGGUGAAUCUGCGAAGUCUGCUGU [A15G U61G], the self-cleavage falls from 0.958 to 0.822.

First: GGGGGCCACAGCAGGAGCGUUCACGUCGCGGCCCCUGUCAGAUUCUGGUGAAUCUGCGAACUCUGCUGU [A15G U61C]
Second: GGGGGCCACAGCAGGAGCGUUCACGUCGCGGCCCCUGUCAGAUUCUGGUGAAUCUGCGAAAUCUGCUGU [A15G U61A]
The self-cleavage of the first is lower: 0.892 for the first, 0.982 for the second.

Going from GGGGGCCACAGCAGUAGCGUUCACGUCGCGGCCCCUGUCAGCUUCUGGUGAAUCUGCGAAUUCUGCUGU [A15U A42C] to GGGGGCCACAGCAGUAGCGUUCACGUCGCGGCCCCUGUCAGUUUCUGGUGAAUCUGCGAAUUCUGCUGU [A15U A42U], the self-cleavage rises from 0.594 to 0.613.

GGGGGCCACAGCAGGAGCGUUCACGUCGCGGCCCCUGUCAGAUUCUGGUGAAUCUGCGAAUUCUGCUGG [A15G U69G] and GGGGGCCACAGCAGGAGCGUUCACGUCGCGGCCCCUGUCAGAUUCUGGUGAAUCUGCGAAUUCUGCUGC [A15G U69C] are the same in self-cleavage: 1.05 for the first, 1.05 for the second.

First: GGGGGCCACAGCAGGAGCGUUCACGUCGCGGCCCCUGUCAGAUUCUGGUGAAUCUGCGAAUUCUGCUGA [A15G U69A]
Second: GGGGGCCACAGCAGUAUCGUUCACGUCGCGGCCCCUGUCAGAUUCUGGUGAAUCUGCGAAUUCUGCUGU [A15U G17U]
The self-cleavage of the first is higher: 1.04 for the first, 0.221 for the second.

Compared with GGGGGCCACAGCAGUAACGUUCACGUCGCGGCCCCUGUCAGAUUCUGGUGAAUCUGCGAAUUCUGCUGU [A15U G17A], GGGGGCCACAGCAGGAGCGUUCACGUCGCGGCCCCUGUCAGAUUCUGGGGAAUCUGCGAAUUCUGCUGU [A15G U49G] is higher in self-cleavage: 0.159 for the first, 0.95 for the second.

Compared with GGGGGCCACAGCAGGAGCGUUCACGUCGCGGCCCCUGUCAGAUUCUGGCGAAUCUGCGAAUUCUGCUGU [A15G U49C], GGGGGCCACAGCAGGAGCGUUCACGUCGCGGCCCCUGUCAGAUUCUGGAGAAUCUGCGAAUUCUGCUGU [A15G U49A] is higher in self-cleavage: 0.968 for the first, 0.986 for the second.

Going from GGGGGCCACAGCAGUAGCGUUCACGUCGCGGCCCCUGUCAGAUUCUGGUGCAUCUGCGAAUUCUGCUGU [A15U A51C] to GGGGGCCACAGCAGUAGCGUUCACGUCGCGGCCCCUGUCAGAUUCUGGUGGAUCUGCGAAUUCUGCUGU [A15U A51G], the self-cleavage rises from 0.79 to 0.916.

Compared with GGGGGCCACAGCAGUAGCGUUCACGUGGCGGCCCCUGUCAGAUUCUGGUGAAUCUGCGAAUUCUGCUGU [A15U C27G], GGGGGCCACAGCAGUAGCGUUCACGUAGCGGCCCCUGUCAGAUUCUGGUGAAUCUGCGAAUUCUGCUGU [A15U C27A] is lower in self-cleavage: 0.168 for the first, 0.0897 for the second.

Going from GGGGGCCACAGCAGUAGGGUUCACGUCGCGGCCCCUGUCAGAUUCUGGUGAAUCUGCGAAUUCUGCUGU [A15U C18G] to GGGGGCCACAGCAGUAGUGUUCACGUCGCGGCCCCUGUCAGAUUCUGGUGAAUCUGCGAAUUCUGCUGU [A15U C18U], the self-cleavage rises from 0.186 to 0.338.

First: GGGGGCCACAGCAGUAGAGUUCACGUCGCGGCCCCUGUCAGAUUCUGGUGAAUCUGCGAAUUCUGCUGU [A15U C18A]
Second: GGGGGCCACAGCAGUAGCGUUCACGUCGCGGCUCCUGUCAGAUUCUGGUGAAUCUGCGAAUUCUGCUGU [A15U C33U]
The self-cleavage of the first is lower: 0.122 for the first, 0.912 for the second.

First: GGGGGCCACAGCAGUAGCGUUCACGUCGCGGCACCUGUCAGAUUCUGGUGAAUCUGCGAAUUCUGCUGU [A15U C33A]
Second: GGGGGCCACAGCAGUAGCGUUCGCGUCGCGGCCCCUGUCAGAUUCUGGUGAAUCUGCGAAUUCUGCUGU [A15U A23G]
The self-cleavage of the first is lower: 0.493 for the first, 0.658 for the second.

First: GGGGGCCACAGCAGUAGCGUUCUCGUCGCGGCCCCUGUCAGAUUCUGGUGAAUCUGCGAAUUCUGCUGU [A15U A23U]
Second: GGGGGCCACAGCAGUAGCGUUCCCGUCGCGGCCCCUGUCAGAUUCUGGUGAAUCUGCGAAUUCUGCUGU [A15U A23C]
The self-cleavage of the first is higher: 0.95 for the first, 0.723 for the second.

First: GGGGGCCACAGCAGUAGCCUUCACGUCGCGGCCCCUGUCAGAUUCUGGUGAAUCUGCGAAUUCUGCUGU [A15U G19C]
Second: GGGGGCCACAGCAGUAGCAUUCACGUCGCGGCCCCUGUCAGAUUCUGGUGAAUCUGCGAAUUCUGCUGU [A15U G19A]
The self-cleavage of the first is higher: 0.132 for the first, 0.13 for the second.

In the case of GGGGGCCACAGCAGGAGCGUUCACGUCGCGGCCCCUGUCAGAUUCUGGUGAAUCUGCGAAUUCUGCCGU [A15G U67C], the self-cleavage is reported as 0.943.
